Patent US20230110188A1 (ARGENX IIP, published 2023)
Numbering of substitutions follows the chain as printed.

T1: Human MuSK (R&D Systems, cat. 10189-MK, histidine tag) (human, UniProt O15146 24-495)
T1 construct: Bought protein; also called human monomeric MuSK-6xhis; not shown: histidine tag (6xhis)
T1 sequence: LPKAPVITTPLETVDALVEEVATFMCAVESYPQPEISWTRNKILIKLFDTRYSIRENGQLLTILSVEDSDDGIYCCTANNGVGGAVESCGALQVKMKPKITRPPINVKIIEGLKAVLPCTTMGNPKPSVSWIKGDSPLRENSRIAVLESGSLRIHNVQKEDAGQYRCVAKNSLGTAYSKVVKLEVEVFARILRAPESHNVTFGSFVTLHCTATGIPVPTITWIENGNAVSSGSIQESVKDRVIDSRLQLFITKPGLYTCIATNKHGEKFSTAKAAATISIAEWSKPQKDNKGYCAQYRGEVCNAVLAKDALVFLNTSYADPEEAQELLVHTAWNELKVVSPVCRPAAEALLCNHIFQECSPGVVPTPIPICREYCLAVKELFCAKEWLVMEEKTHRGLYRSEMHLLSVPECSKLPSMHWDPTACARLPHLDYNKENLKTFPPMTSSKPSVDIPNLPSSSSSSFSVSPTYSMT

T2: human monomeric MuSK FLAG streptavidin (in house produced, batch 27-6-2019) (human, UniProt O15146 24-495)
T2 construct: also called full length MuSK; not shown: FLAG and streptavidin tags
T2 sequence: T1 sequence

T3: hMuSK delta 1-2-3 (Fz) (human, UniProt O15146)
T3 construct: truncated extracellular domain, captured by anti-FLAG
T3 sequence (truncated extracellular domain, looked up): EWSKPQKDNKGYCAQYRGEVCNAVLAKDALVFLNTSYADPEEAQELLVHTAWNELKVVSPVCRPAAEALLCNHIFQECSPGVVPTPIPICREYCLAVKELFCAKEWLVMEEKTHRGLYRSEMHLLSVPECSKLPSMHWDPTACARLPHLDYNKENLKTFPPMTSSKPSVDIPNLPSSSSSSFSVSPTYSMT

T4: hMuSK delta 1-2 (Ig3 Fz) (human, UniProt O15146)
T4 construct: truncated extracellular domain, captured by anti-FLAG
T4 sequence (truncated extracellular domain, looked up): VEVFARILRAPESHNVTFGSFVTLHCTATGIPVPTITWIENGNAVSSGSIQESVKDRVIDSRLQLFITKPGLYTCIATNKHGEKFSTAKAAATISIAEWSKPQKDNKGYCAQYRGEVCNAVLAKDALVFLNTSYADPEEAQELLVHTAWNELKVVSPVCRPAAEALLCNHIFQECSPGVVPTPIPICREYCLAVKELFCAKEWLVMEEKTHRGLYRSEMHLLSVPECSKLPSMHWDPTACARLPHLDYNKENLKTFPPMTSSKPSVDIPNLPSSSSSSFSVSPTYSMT

B1: 3D10a (antibody, human IgG1, kappa, L234A L235A, V domains shown)
VH: EVQLVESGGGLVKPGGSLRLSCAASGFTFSASTMAWVRQAPGKGLEWVSSVSGDSHHIYYADSLKGRFTISRDNAKNSLYLQMNSLRAEDTAVYYCARERLLRLGVGFDSWGQGTLVTVSS
VL: DIQMTQSPSSLSASVGDRVTITCRASQRISGFVNWYQQKPGKAPKLLIYAASTLQSGVPSRFSGSGSGTDFTLTISSLQPEDFATYYCQQSYSPLYTFGQGTKLEIKR
B2: 4D3 (antibody, human IgG1, kappa, L234A L235A, V domains shown)
VH: B1 VH with A31S, S32Y, A35T, V51I, G53S, D54G, S55G, H57Y, A61T, S110F
VL: B1 VL with R28S, F32Y, V33L, P94A
B3: 3F6c (antibody, human IgG1, kappa, L234A L235A, V domains shown)
VH: EVQLVESGGGLVKPGGSLRLSCAASGFTFSSYTMDWVRQAPGKGLEWVSSIGSNGDYIYYADSVRGRFTISRDNAKNSLYLQMNSLRAEDTAVYYCARGQLAVAGTHFDYWGQGTLVTVSS
VL: B1 VL with R28K, I29V, S30N, G31K, F32Y, Y96S
B4: 3D9b (antibody, human IgG1, kappa, L234A L235A, V domains shown)
VH: EVQLVESGGGLVKPGGSLRLSCAASGFTFSTYTMHWVRQAPGKGLEWVSSISSRSAYKYYADSVKGRFTISRDNAKNSLYLQMNSLRAEDTAVYYCARDFFQLGPPRFDSWGQGTLVTVSS
VL: B1 VL with G31S, V33L, A50G, T53N, L95S

biological target: T1, Human MuSK (R&D Systems, cat. 10189-MK, …); experiment: SPR (Biacore), MuSK-coated chip, antibody alone (run of first antibody 4D3)
Method: A chip was coated with ˜5000 RU of human MuSK (Lot nr DHUCO 11908A, batch nr 1089_MK). In a first experiment the saturating concentration of the pre-leads was determined. This is the concentration where the amplitude of a specific pre-lead doesn't increase anymore when additional pre-lead is injected on the immobilized MuSK.

First: B1
Second: B2
The “amplitude of prelead without presaturating MuSK (RU)” value of the first is higher: 951 RU for the first, 859 RU for the second.

Going from B3 to B4, the “amplitude of prelead without presaturating MuSK (RU)” value rises from 1010 RU to 1100 RU.

biological target: T1, Human MuSK (R&D Systems, cat. 10189-MK, …); experiment: SPR (Biacore), antibody captured on anti-hFc chip; 10 nM; dissociation pH 5.5
From the text: (§1) In order to study pH dependent binding of our antibodies to MuSK, the Biacore was used with the same setup as described in the paragraph entitled “Binding affinity for mouse, human and rhesus monkey recombinant MuSK in Biacore”. 6. […] For the other antibodies there is no real difference observed between pH 7.4 and 5.5.

First: B1
Second: B2
The koff of the first is 1.7-fold lower: 0.00011 s⁻¹ for the first, 0.00019 s⁻¹ for the second.

Going from B3 to B4, the koff falls from 0.00023 s⁻¹ to 4e-05 s⁻¹ (5.8-fold).

biological target: T1, Human MuSK (R&D Systems, cat. 10189-MK, …); experiment: SPR (Biacore), antibody captured on anti-hFc chip; 2.5 nM; dissociation pH 7.4
From the text: as §1

B1 and B2 are within 1.5-fold of each other in koff: 0.00018 s⁻¹ for the first, 0.00015 s⁻¹ for the second.

Compared with B3, B4 is 1.5-fold higher in koff: 6e-05 s⁻¹ for the first, 9e-05 s⁻¹ for the second.

biological target: T1, Human MuSK (R&D Systems, cat. 10189-MK, …); experiment: SPR (Biacore), antibody captured on anti-hFc chip; 0.625 nM; dissociation pH 7.4
From the text: as §1

B1 and B2 are within 1.5-fold of each other in koff: 0.00013 s⁻¹ for the first, 0.00016 s⁻¹ for the second.

Compared with B3, B4 is 3.5-fold higher in koff: 4e-05 s⁻¹ for the first, 0.00014 s⁻¹ for the second.

biological target: T2, human monomeric MuSK FLAG streptavidin …; experiment: epitope binning ELISA (coated anti-MuSK Fab, MuSK, IgG, anti-Fc HRP); competitor: 3B5wt
Method: For epitope binning—An ELISA plate was coated at 1 μg/ml of the anti-MuSK Fabs and incubated overnight at 4° C. Next, the plate was wash with PBS followed by blocking with 1% casein in PBS for one hour. After washing the plate, 1 μg/ml of human monomeric MuSK (in house produced, batch 27-6-2019) was incubated for one hour at RT. The plate was washed and anti-MuSK antibodies at 0.3-10 μg/ml were added to the plate and incubated for one hour at RT. After washing the plate, detection antibody (goat anti-human Fc HRP (Jackson Immunoresearch cat. 109-035-098)) was added at 5000 fold dilution in PBS 0.1% casein. The plate was incubated for one hour at RT and washed with PBS-T. TMB was added and the reaction was stopped by adding H2504. […]
For the epitope binning ELISA, a plate was coated with anti-MuSK Fab and human monomeric MuSK was added after blocking the plate. Next the different antibodies were added and allowed to bind.

First: B1
Second: B2
The “OD 450 nm” value of the first is higher: 2.12 OD for the first, 0.882 OD for the second.

Compared with B3, B4 is higher in “OD 450 nm” value: 2.2 OD for the first, 2.66 OD for the second.

biological target: T3, hMuSK delta 1-2-3 (Fz); experiment: ELISA, hMuSK delta 1-2-3 (Fz) captured on anti-FLAG coat, antibody titrated, anti-human Fc HRP detection, OD450
Method: (§2) For binding to MuSK domains—An ELISA plate was coated with 0.5 μg/ml of anti-FLAG (M2 clone, Sigma Cat. F3165) and incubated overnight at 4° C. Next, the plate was washed with PBS and blocked with 1×PBS 1% casein for two hours at RT. After washing the plate, human monomeric MuSK FLAG streptavidin (batch 27-6-2019) and truncated MuSK variants (batch 3-9-2019) at 1 μg/ml in PBS where incubated for one hour at RT. After washing the plate, antibodies were diluted in blocking buffer and added to the plate. After a one hour incubation at RT, the plate was washed. Next, detecting antibody was added and incubated for one hour at RT (anti-human Fc HRP (1/5000) (clone 5A9, cat. No. Ab7499, ABCAM)) in blocking buffer. Lastly, the plate was washed with PBS and TMB was added and the reaction was stopped with 0.5 M H2SO4. OD 450 nm was determined by the Tecan Sunrise ELISA plate reader.
(§3) For the MuSK domain binding ELISA, binding of anti-MuSK antibodies to FLAG captured human monomeric MuSK and truncated variants was tested (FIG. 6). 3D9b, 3F6c, 3D10a, 4D3 and 3B5 bound only to full length MuSK, no binding was observed against the truncated MuSK variants. Therefore, we conclude that our antibodies bind to the Ig1 domain.

B1: no binding (tested: log(conc) 4.2 (about 16000 ng/ml)).
B2: no binding (tested: log(conc) 4.2 (about 16000 ng/ml)).
B3: no binding (tested: log(conc) 4.2 (about 16000 ng/ml)).
B4: no binding (tested: log(conc) 4.2 (about 16000 ng/ml)).

biological target: T4, hMuSK delta 1-2 (Ig3 Fz); experiment: ELISA, hMuSK delta 1-2 (Ig3 Fz) captured on anti-FLAG coat, antibody titrated, anti-human Fc HRP detection, OD450
Method: as §2, §3

B1: no binding (tested: log(conc) 4.2 (about 16000 ng/ml)).
B2: no binding (tested: log(conc) 4.2 (about 16000 ng/ml)).
B3: no binding (tested: log(conc) 4.2 (about 16000 ng/ml)).
B4: no binding (tested: log(conc) 4.2 (about 16000 ng/ml)).
